Measured values from publication PMC10075959 (Science Advances, 2023).
Residue numbers refer to the chain shown, from its start. Names and notes keep the numbering of the source. Where two headings read alike, the source gives them in different places.

B1: NLRS:G215C peptide (peptide)
peptide: MAGNGCDAALALLLLDRLNQLESKMSGKGQQQQGQTV
B2: NLRS:G215C peptide (peptide)
chain: B1 peptide
B3: NLRS:L222M/G215C double mutant peptide (peptide)
chain: B1 peptide with L13M
B4: NLRS:G215S peptide (peptide)
chain: B1 peptide with C6S
B5: NLRS:L222M peptide (peptide)
chain: B1 peptide with C6G, L13M
B6: NLRS:G215S peptide (peptide)
peptide: B1 peptide with C6S

Key:
AUC [1] = target: the molecule itself; test: AUC
AUC [2] = target: the molecule itself; test: AUC; remark: listed apart in the source

Row | Protein | binding result (AUC [1]) | binding result (AUC [2])
1 | B1 | binds | –
2 | B2 | – | binds
3 | B3 | – | binds
4 | B4 | – | binds
5 | B5 | – | binds
6 | B6 | binds | –
